For 2 molecules, Kd results are on record in article PMC4132724.

This data set has as its target T1, Pot1pN (Schizosaccharomyces pombe, UniProt O13988 1-185).
T1 sequence: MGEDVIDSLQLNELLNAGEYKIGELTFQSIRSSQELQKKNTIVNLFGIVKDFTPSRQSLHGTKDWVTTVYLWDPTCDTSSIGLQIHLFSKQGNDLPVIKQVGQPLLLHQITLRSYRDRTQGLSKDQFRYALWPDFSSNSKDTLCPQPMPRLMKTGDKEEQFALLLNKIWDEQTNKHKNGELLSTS
Briefly: EMSA. For orientation: A gel shift assay detects complexes by their altered migration in electrophoresis.

What is called Kd is the free concentration of one partner at which half of the binding sites on the other are occupied at equilibrium, for simple one-to-one binding. A high value points to a looser complex.

B1: 5hmU at T3 (ssDNA)
DNA: GGTCACGGTCACAGGUTACA
modifications: 5-hydroxymethyl-2'-deoxyuridine at position 16 (written U)
Turning to B1, the Kd stood at 0.067 ± 0.0056 µM.

B2: 20-mer control (GGTTAC) (ssDNA)
DNA: GGTCACGGTCACAGGTTACA
B2 showed a Kd of 0.066 ± 0.005 µM.
